US20150132813A1, “BIOSYNTHETIC PATHWAYS, RECOMBINANT CELLS, AND METHODS” (REGENTS OF THE UNIVERSITY OF MINNESOTA, priority 2012, published 2015)

What was measured:
[1] = molecular target: indolepyruvate decarboxylase (IPDC) (Salmonella enterica, UniProt H9L492); assay: Coupled enzymatic assay of IPDC (NADH absorbance at 340 nm); conditions: substrate of IPDC, pH 6.8
Protocol: (§1) The kinetic parameters were measured by monitoring the NADH absorbance at 340 nm.
(§2) The kinetic parameters were measured by monitoring the NADH absorbance at 340 nm. The activity of IPDC was measured using a coupled enzymatic assay method.
(§3) The activity of IPDC was measured using a coupled enzymatic assay method. Excess of an appropriate aldehyde dehydrogenase (AldH for 2-Keto-3-methylvalerate and KDHba for 2-Ketocaproate) was used to oxidize aldehyde into acid while cofactor NAD+ was reduced to NADH. The assay mixture contained 0.5 mM NAD+, 0.1 μM appropriate aldehyde dehydrogenase and corresponding 2-keto acid in the range of 1 mM to 8 mM in assay buffer (50 mM NaH2PO4, pH 6.8, 1 mM MgSO4, 0.5 mM ThDP) with a total volume of 78 μL. To start the reaction, 2 μL of 1 μM IPDC was added and generation of NADH was monitored at 340 nm. Kinetic parameters (kcat and KM) were determined by fitting initial rate data to the Michaelis-Menten equation.

[2] = molecular target: T1, 3-hydroxypropionaldehyde dehydrogenase AldH (Escherichia coli, UniProt P23883); assay: Enzymatic assay of AldH (NADH absorbance at 340 nm); conditions: substrate of AldH; pH 8.0, 0.5 mM NAD+
T1 sequence (P23883 1-495): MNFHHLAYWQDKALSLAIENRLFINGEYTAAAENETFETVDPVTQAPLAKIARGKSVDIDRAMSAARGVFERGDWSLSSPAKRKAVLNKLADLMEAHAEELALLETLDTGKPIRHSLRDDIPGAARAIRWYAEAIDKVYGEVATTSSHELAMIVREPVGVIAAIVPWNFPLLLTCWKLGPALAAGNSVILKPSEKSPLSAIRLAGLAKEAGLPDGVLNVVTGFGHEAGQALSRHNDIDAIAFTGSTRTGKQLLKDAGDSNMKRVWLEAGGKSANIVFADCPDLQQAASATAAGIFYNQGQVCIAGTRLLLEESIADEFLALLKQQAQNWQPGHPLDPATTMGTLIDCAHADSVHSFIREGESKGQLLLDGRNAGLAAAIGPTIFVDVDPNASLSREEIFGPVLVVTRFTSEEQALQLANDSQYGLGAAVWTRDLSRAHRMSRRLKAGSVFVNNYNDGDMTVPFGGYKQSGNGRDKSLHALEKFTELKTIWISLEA
Protocol: as §1
(§4) Enzymatic assay of KDHba consisted of 0.5 mM NAD+ and valeraldehyde in the range of 50 μM to 400 μM in assay buffer (50 mM NaH2PO4, pH 8.0, 1 mM DTT) with a total volume of 78 μL. To start the reaction, 2 μL of 1 M KDHba was added and generation of NADH was monitored at 340 nm (extinction coefficient, 6.22 mM^−1 cm^−1). A similar protocol was used for AldH with 2-Methyl butyraldehyde concentrations in the range of 1 mM to 6 mM.

[3] = tested on: α-ketoglutaric semialdehyde dehydrogenase KDHba; conditions: substrate of KDHba; from Xiong et al., Sci Rep 2012; cited from earlier work
PA1 strain [4] = assay: Shake flask fermentation for 2-methylbutyric acid production (PA1 strain with pIPA1, pIPA2 and a DC-DH plasmid), HPLC; conditions: aldehyde dehydrogenase varied, wild-type KIVD as 2-ketoacid decarboxylase; 40 g/L glucose, 48 hours, 30° C.
PA1 strain [5] = assay: Shake flask fermentation for pentanoic acid production (PA1 strain with pIPA1, pIPA3 and a DC-DH plasmid), HPLC; conditions: aldehyde dehydrogenase varied, wild-type KIVD as 2-ketoacid decarboxylase; 40 g/L glucose, 48 hours, 30° C.
CCCCC(=O)C(=O)O = assay: purified protein, by the assay type; conditions: other: substrate of IPDC, coupled assay, pH 6.8
Protocol: as §1, §2, §3
CCC(C)C(=O)C(=O)O = assay: purified protein, by the assay type; conditions: other: substrate of IPDC, coupled assay, pH 6.8
Protocol: as §1, §2, §3

[6] = substrate: CCC(C)C=O; assay: purified protein, by the assay type; conditions: other: substrate of AldH, pH 8.0, 0.5 mM NAD+, 30.0 °C
Protocol: as §1, §4

Chain of indolepyruvate decarboxylase (IPDC) (H9L492 1-550): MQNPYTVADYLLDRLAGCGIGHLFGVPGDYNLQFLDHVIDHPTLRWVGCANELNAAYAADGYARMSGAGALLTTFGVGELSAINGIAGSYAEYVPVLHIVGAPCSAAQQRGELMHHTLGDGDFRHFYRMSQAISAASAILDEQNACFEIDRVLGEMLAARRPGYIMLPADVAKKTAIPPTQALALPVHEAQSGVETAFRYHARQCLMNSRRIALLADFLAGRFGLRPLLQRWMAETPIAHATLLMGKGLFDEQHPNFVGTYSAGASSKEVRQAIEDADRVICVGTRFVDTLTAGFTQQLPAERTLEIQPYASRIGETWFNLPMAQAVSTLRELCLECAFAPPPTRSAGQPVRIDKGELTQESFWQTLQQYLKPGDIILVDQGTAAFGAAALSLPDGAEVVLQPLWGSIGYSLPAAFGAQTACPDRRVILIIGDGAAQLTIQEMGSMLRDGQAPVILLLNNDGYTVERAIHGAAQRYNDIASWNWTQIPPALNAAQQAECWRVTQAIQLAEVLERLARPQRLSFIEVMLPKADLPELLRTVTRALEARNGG

Q: With `CCC(C)C(=O)C(=O)O` (stereo not drawn) [2-Keto-3-methylvalerate, 2-keto-3-methylvalerate] as the molecule, how does the kcat [1] read?
A: Its kcat is 4.13 s⁻¹.

Q: For `CCCCC(=O)C(=O)O` [2-Ketocaproate, 2-ketocaproate], which kcat [1] is on record?
A: The kcat was 1.89 s⁻¹.

Q: For `CCC(C)C=O` (stereo not drawn) [2-Methyl butyraldehyde, 2-methyl butyraldehyde], which kcat [2] is on record?
A: The kcat was 3.55 s⁻¹.

Q: Which Km [3] does the source give for `CC(C)C=O` [isobutyraldehyde] here?
A: Its Km is 34.5 mM.

Q: Which Km [3] does the source give for `CC(C)CC=O` [isovaleraldehyde] here?
A: Its Km is 7.62 mM.

Q: For “YdcW: γ-aminobutyraldehyde dehydrogenase YdcW from E. coli”, which 2-methylbutyric acid titer (PA1 strain [4]) is on record?
A: Its 2-methylbutyric acid titer is 0.23 g/L.

Q: What about the pentanoic acid titer (PA1 strain [5]) of the same molecule?
A: The pentanoic acid titer was 0.22 g/L.

Q: Which Km (CCCCC(=O)C(=O)O) does the source give for “indolepyruvate decarboxylase (IPDC) (Salmonella enterica subsp. enterica serovar Typhimurium str. LT2)” here?
A: Its Km is 0.63 mM.

Q: And the kcat (CCCCC(=O)C(=O)O)?
A: Its kcat is 1.89 ± 0.06 s⁻¹.

Q: What about the kcat/Km (CCCCC(=O)C(=O)O) of the same molecule?
A: Its kcat/Km is 3000 M⁻¹ s⁻¹.

Q: What about the Km (CCC(C)C(=O)C(=O)O) of the same molecule?
A: The Km was 0.85 mM.

Q: And the kcat (CCC(C)C(=O)C(=O)O)?
A: Its kcat is 4.13 ± 0.21 s⁻¹.

Q: And the kcat/Km (CCC(C)C(=O)C(=O)O)?
A: The kcat/Km was 4860 M⁻¹ s⁻¹.

B1: GabD: succinate semialdehyde dehydrogenase GabD from E. coli (protein, UniProt P25526 1-482, looked up)
Succinate-semialdehyde …: MKLNDSNLFRQQALINGEWLDANNGEAIDVTNPANGDKLGSVPKMGADETRAAIDAANRALPAWRALTAKERATILRNWFNLMMEHQDDLARLMTLEQGKPLAEAKGEISYAASFIEWFAEEGKRIYGDTIPGHQADKRLIVIKQPIGVTAAITPWNFPAAMITRKAGPALAAGCTMVLKPASQTPFSALALAELAIRAGVPAGVFNVVTGSAGAVGNELTSNPLVRKLSFTGSTEIGRQLMEQCAKDIKKVSLELGGNAPFIVFDDADLDKAVEGALASKFRNAGQTCVCANRLYVQDGVYDRFAEKLQQAVSKLHIGDGLDNGVTIGPLIDEKAVAKVEEHIADALEKGARVVCGGKAHERGGNFFQPTILVDVPANAKVSKEETFGPLAPLFRFKDEADVIAQANDTEFGLAAYFYARDLSRVFRVGEALEYGIVGINTGIISNEVAPFGGIKASGLGREGSKYGIEDYLEIKYMCIGL
Q: With B1 as the molecule, how does the 2-methylbutyric acid titer (PA1 strain [4]) read?
A: The 2-methylbutyric acid titer was 0.14 g/L.

Q: And the pentanoic acid titer (PA1 strain [5])?
A: The pentanoic acid titer was 0.54 g/L.

B2: 3-hydroxypropionaldehyde dehydrogenase AldH (Escherichia coli K-12) (protein)
chain: MNFHHLAYWQDKALSLAIENRLFINGEYTAAAENETFETVDPVTQAPLAKIARGKSVDIDRAMSAARGVFERGDWSLSSPAKRKAVLNKLADLMEAHAEELALLETLDTGKPIRHSLRDDIPGAARAIRWYAEAIDKVYGEVATTSSHELAMIVREPVGVIAAIVPWNFPLLLTCWKLGPALAAGNSVILKPSEKSPLSAIRLAGLAKEAGLPDGVLNVVTGFGHEAGQALSRHNDIDAIAFTGSTRTGKQLLKDAGDSNMKRVWLEAGGKSANIVFADCPDLQQAASATAAGIFYNQGQVCIAGTRLLLEESIADEFLALLKQQAQNWQPGHPLDPATTMGTLIDCAHADSVHSFIREGESKGQLLLDGRNAGLAAAIGPTIFVDVDPNASLSREEIFGPVLVVTRFTSEEQALQLANDSQYGLGAAVWTRDLSRAHRMSRRLKAGSVFVNNYNDGDMTVPFGGYKQSGNGRDKSLHALEKFTELKTIWISLEA
Q: With B2 as the molecule, how does the 2-methylbutyric acid titer (PA1 strain [4]) read?
A: The 2-methylbutyric acid titer was 2.51 g/L.

Q: And the Km [6]?
A: The Km was 1.89 mM.

Q: And the kcat [6]?
A: The kcat was 3.55 ± 0.17 s⁻¹.

Q: What about the kcat/Km [6] of the same molecule?
A: Its kcat/Km is 1880 M⁻¹ s⁻¹.

Q: What about the pentanoic acid titer (PA1 strain [5]) of the same molecule?
A: Its pentanoic acid titer is 1.76 g/L.

B3: Al dB: acetaldehyde dehydrogenase AldB from E. coli (protein, UniProt P37685 1-512, looked up)
Aldehyde dehydrogenase B: MTNNPPSAQIKPGEYGFPLKLKARYDNFIGGEWVAPADGEYYQNLTPVTGQLLCEVASSGKRDIDLALDAAHKVKDKWAHTSVQDRAAILFKIADRMEQNLELLATAETWDNGKPIRETSAADVPLAIDHFRYFASCIRAQEGGISEVDSETVAYHFHEPLGVVGQIIPWNFPLLMASWKMAPALAAGNCVVLKPARLTPLSVLLLMEIVGDLLPPGVVNVVNGAGGVIGEYLATSKRIAKVAFTGSTEVGQQIMQYATQNIIPVTLELGGKSPNIFFADVMDEEDAFFDKALEGFALFAFNQGEVCTCPSRALVQESIYERFMERAIRRVESIRSGNPLDSVTQMGAQVSHGQLETILNYIDIGKKEGADVLTGGRRKLLEGELKDGYYLEPTILFGQNNMRVFQEEIFGPVLAVTTFKTMEEALELANDTQYGLGAGVWSRNGNLAYKMGRGIQAGRVWTNCYHAYPAHAAFGGYKQSGIGRETHKMMLEHYQQTKCLLVSYSDKPLGLF
Q: Which 2-methylbutyric acid titer (PA1 strain [4]) does the source give for B3 here?
A: The 2-methylbutyric acid titer was 2.31 g/L.

Q: And the pentanoic acid titer (PA1 strain [5])?
A: The pentanoic acid titer was 0.42 g/L.

B4: PadA: phenylacetaldehyde dehydrogenase PadA from E. coli (protein, UniProt P80668 1-499, looked up)
Phenylacetaldehyde …: MTEPHVAVLSQVQQFLDRQHGLYIDGRPGPAQSEKRLAIFDPATGQEIASTADANEADVDNAVMSAWRAFVSRRWAGRLPAERERILLRFADLVEQHSEELAQLETLEQGKSIAISRAFEVGCTLNWMRYTAGLTTKIAGKTLDLSIPLPQGARYQAWTRKEPVGVVAGIVPWNFPLMIGMWKVMPALAAGCSIVIKPSETTPLTMLRVAELASEAGIPDGVFNVVTGSGAVCGAALTSHPHVAKISFTGSTATGKGIARTAADHLTRVTLELGGKNPAIVLKDADPQWVIEGLMTGSFLNQGQVCAASSRIYIEAPLFDTLVSGFEQAVKSLQVGPGMSPVAQINPLVSRAHCDKVCSFLDDAQAQQAELIRGSNGPAGEGYYVAPTLVVNPDAKLRLTREEVFGPVVNLVRVADGEEALQLANDTEYGLTASVWTQNLSQALEYSDRLQAGTVWVNSHTLIDANLPFGGMKQSGTGRDFGPDWLDGWCETKSVCVRY
Q: With B4 as the molecule, how does the 2-methylbutyric acid titer (PA1 strain [4]) read?
A: Its 2-methylbutyric acid titer is 2.26 g/L.

Q: And the pentanoic acid titer (PA1 strain [5])?
A: The pentanoic acid titer was 2.12 g/L.
